Results as given in the supplement of paper PMC6757056.
± gives the standard deviation of the averaged measurements.

B1: library; a variant is named by its letters at N, in order (parent)
chain: GCUGUCACCGGUGCUUGGUACGUUAUAUUCAGCCGGUCUGAUGAGUCUNNNNNNAGACGAAACAGC

Key:
(6R,S)-folinic acid [1] = variants of: B1; experiment: normalized RNA/DNA level without ligand (relative to sTRSVctl = 100) (log10 (% of sTRSVctl)); HEK293T overexpressing SLC46A1; higher = less ribozyme self-cleavage, higher mRNA level; details: without (6R,S)-folinic acid; ligand present: no
Summary of the method: (§1)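 HEK293T cells received ligand, where used, 1 h before being transfected with 4 µg per 6-well well of library plasmids encoding reporter-linked ribozyme switches. After 72 h, RNA was extracted with EDTA and sequenced. RNA level was derived from RNA reads per DNA read, normalized to a spiked-in non-cleaving sequence or the top sequences, then scaled and log-transformed. Values were ×100 then log10, the top set was 25 sequences, and the minimum was 100 DNA reads.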

(6R,S)-folinic acid [2] = variants of: B1; experiment: normalized RNA/DNA level with ligand (relative to sTRSVctl = 100) (log10 (% of sTRSVctl)); HEK293T overexpressing SLC46A1; ligand concentration (+) RNA-Seq: 6 mM; higher = less ribozyme self-cleavage, higher mRNA level; details: with (6R,S)-folinic acid; ligand present: yes
Summary of the method: as §1

| Variant | normalized RNA/DNA level without ligand (log10) ((6R,S)-folinic acid [1]) | normalized RNA/DNA level with ligand (log10) ((6R,S)-folinic acid [2]) |
| --- | --- | --- |
| GCUGUCACCGGUGCUUGGUACGUUAUAUUCAGCCGGUCUGAUGAGUCUUUGUGUAGACGAAACAGC [UUGUGU] | 2.03 ± 0.011 | 2.05 ± 0.031 |
| GCUGUCACCGGUGCUUGGUACGUUAUAUUCAGCCGGUCUGAUGAGUCUUUGUGGAGACGAAACAGC [UUGUGG] | 1.888 ± 0.0042 | 2.06 ± 0.044 |
| GCUGUCACCGGUGCUUGGUACGUUAUAUUCAGCCGGUCUGAUGAGUCUUUGUGCAGACGAAACAGC [UUGUGC] | 2.018 ± 0.0046 | 2.053 ± 0.02 |
| GCUGUCACCGGUGCUUGGUACGUUAUAUUCAGCCGGUCUGAUGAGUCUGUGUUGAGACGAAACAGC [GUGUUG] | 1.9429 ± 0.0015 | 2.014 ± 0.015 |
| GCUGUCACCGGUGCUUGGUACGUUAUAUUCAGCCGGUCUGAUGAGUCUGUGUUUAGACGAAACAGC [GUGUUU] | 2.03 ± 0.027 | 2.05 ± 0.036 |
| GCUGUCACCGGUGCUUGGUACGUUAUAUUCAGCCGGUCUGAUGAGUCUGUGUUCAGACGAAACAGC [GUGUUC] | 2.01 ± 0.031 | 2.012 ± 0.0073 |
| GCUGUCACCGGUGCUUGGUACGUUAUAUUCAGCCGGUCUGAUGAGUCUGUGUUAAGACGAAACAGC [GUGUUA] | 1.988 ± 0.015 | 2.01 ± 0.025 |
| GCUGUCACCGGUGCUUGGUACGUUAUAUUCAGCCGGUCUGAUGAGUCUCUUAAGAGACGAAACAGC [CUUAAG] | 1.913 ± 0.0089 | 1.986 ± 0.0033 |
| GCUGUCACCGGUGCUUGGUACGUUAUAUUCAGCCGGUCUGAUGAGUCUCUUAAUAGACGAAACAGC [CUUAAU] | 1.989 ± 0.0044 | 2.001 ± 0.011 |
| GCUGUCACCGGUGCUUGGUACGUUAUAUUCAGCCGGUCUGAUGAGUCUCUUAACAGACGAAACAGC [CUUAAC] | 1.9881 ± 0.0006 | 1.983 ± 0.0059 |
| GCUGUCACCGGUGCUUGGUACGUUAUAUUCAGCCGGUCUGAUGAGUCUCUUAAAAGACGAAACAGC [CUUAAA] | 1.9796 ± 8.1e-05 | 1.968 ± 0.017 |
| GCUGUCACCGGUGCUUGGUACGUUAUAUUCAGCCGGUCUGAUGAGUCUAUUACAAGACGAAACAGC [AUUACA] | 1.992 ± 0.017 | 2.01 ± 0.059 |
| GCUGUCACCGGUGCUUGGUACGUUAUAUUCAGCCGGUCUGAUGAGUCUAUUACCAGACGAAACAGC [AUUACC] | 2.019 ± 0.0035 | 2 ± 0.025 |
| GCUGUCACCGGUGCUUGGUACGUUAUAUUCAGCCGGUCUGAUGAGUCUGUGUGGAGACGAAACAGC [GUGUGG] | 1.908 ± 0.0095 | 2.03 ± 0.048 |
| GCUGUCACCGGUGCUUGGUACGUUAUAUUCAGCCGGUCUGAUGAGUCUAUGUUCAGACGAAACAGC [AUGUUC] | 2.0332 ± 0.0018 | 2.01 ± 0.021 |
| GCUGUCACCGGUGCUUGGUACGUUAUAUUCAGCCGGUCUGAUGAGUCUAUGUUUAGACGAAACAGC [AUGUUU] | 1.976 ± 0.015 | 2.004 ± 0.011 |
| GCUGUCACCGGUGCUUGGUACGUUAUAUUCAGCCGGUCUGAUGAGUCUAUGUUAAGACGAAACAGC [AUGUUA] | 1.938 ± 1.9e-05 | 1.98 ± 0.057 |
| GCUGUCACCGGUGCUUGGUACGUUAUAUUCAGCCGGUCUGAUGAGUCUAUGUUGAGACGAAACAGC [AUGUUG] | 1.889 ± 0.01 | 2.017 ± 0.019 |
| GCUGUCACCGGUGCUUGGUACGUUAUAUUCAGCCGGUCUGAUGAGUCUUUUAACAGACGAAACAGC [UUUAAC] | 1.978 ± 0.011 | 1.99 ± 0.028 |
| GCUGUCACCGGUGCUUGGUACGUUAUAUUCAGCCGGUCUGAUGAGUCUUUUAAUAGACGAAACAGC [UUUAAU] | 1.975 ± 0.0038 | 1.988 ± 0.014 |
| GCUGUCACCGGUGCUUGGUACGUUAUAUUCAGCCGGUCUGAUGAGUCUUUUAAAAGACGAAACAGC [UUUAAA] | 1.934 ± 0.0037 | 1.97 ± 0.047 |

| Variant | normalized RNA/DNA level without ligand (log10) ((6R,S)-folinic acid [1]) | normalized RNA/DNA level with ligand (log10) ((6R,S)-folinic acid [2]) |
| --- | --- | --- |
| GCUGUCACCGGUGCUUGGUACGUUAUAUUCAGCCGGUCUGAUGAGUCUAUUAAGAGACGAAACAGC [AUUAAG] | 1.931 ± 0.011 | 2.01 ± 0.026 |
| GCUGUCACCGGUGCUUGGUACGUUAUAUUCAGCCGGUCUGAUGAGUCUAUUAAUAGACGAAACAGC [AUUAAU] | 1.9586 ± 0.0017 | 1.98 ± 0.033 |
| GCUGUCACCGGUGCUUGGUACGUUAUAUUCAGCCGGUCUGAUGAGUCUAUUAACAGACGAAACAGC [AUUAAC] | 2.011 ± 0.0026 | 2.03 ± 0.033 |
| GCUGUCACCGGUGCUUGGUACGUUAUAUUCAGCCGGUCUGAUGAGUCUCUGUGUAGACGAAACAGC [CUGUGU] | 1.997 ± 0.017 | 2.011 ± 0.004 |
| GCUGUCACCGGUGCUUGGUACGUUAUAUUCAGCCGGUCUGAUGAGUCUCUGUGGAGACGAAACAGC [CUGUGG] | 1.96 ± 0.0026 | 2.059 ± 0.016 |
| GCUGUCACCGGUGCUUGGUACGUUAUAUUCAGCCGGUCUGAUGAGUCUGUUAACAGACGAAACAGC [GUUAAC] | 1.976 ± 0.0067 | 2.024 ± 0.015 |
| GCUGUCACCGGUGCUUGGUACGUUAUAUUCAGCCGGUCUGAUGAGUCUGUUAAAAGACGAAACAGC [GUUAAA] | 1.991 ± 0.011 | 2 ± 0.039 |
| GCUGUCACCGGUGCUUGGUACGUUAUAUUCAGCCGGUCUGAUGAGUCUGUUAAGAGACGAAACAGC [GUUAAG] | 1.96 ± 0.006 | 2.02 ± 0.027 |
| GCUGUCACCGGUGCUUGGUACGUUAUAUUCAGCCGGUCUGAUGAGUCUGUUAAUAGACGAAACAGC [GUUAAU] | 1.9687 ± 4.4e-05 | 2.04 ± 0.026 |
| GCUGUCACCGGUGCUUGGUACGUUAUAUUCAGCCGGUCUGAUGAGUCUUUGUUUAGACGAAACAGC [UUGUUU] | 2.065 ± 0.018 | 2.08 ± 0.035 |
| GCUGUCACCGGUGCUUGGUACGUUAUAUUCAGCCGGUCUGAUGAGUCUUUGUUGAGACGAAACAGC [UUGUUG] | 1.96 ± 0.026 | 2.05 ± 0.027 |
| GCUGUCACCGGUGCUUGGUACGUUAUAUUCAGCCGGUCUGAUGAGUCUUUGUUCAGACGAAACAGC [UUGUUC] | 2.056 ± 0.017 | 2.08 ± 0.047 |
| GCUGUCACCGGUGCUUGGUACGUUAUAUUCAGCCGGUCUGAUGAGUCUUUUACAAGACGAAACAGC [UUUACA] | 2.0168 ± 0.00066 | 2.029 ± 0.0067 |
| GCUGUCACCGGUGCUUGGUACGUUAUAUUCAGCCGGUCUGAUGAGUCUCUUACAAGACGAAACAGC [CUUACA] | 2.004 ± 0.01 | 2 ± 0.022 |
| GCUGUCACCGGUGCUUGGUACGUUAUAUUCAGCCGGUCUGAUGAGUCUCUGUUGAGACGAAACAGC [CUGUUG] | 2.04 ± 0.035 | 2.03 ± 0.027 |
| GCUGUCACCGGUGCUUGGUACGUUAUAUUCAGCCGGUCUGAUGAGUCUCUGUUCAGACGAAACAGC [CUGUUC] | 2.049 ± 0.016 | 2.03 ± 0.024 |
| GCUGUCACCGGUGCUUGGUACGUUAUAUUCAGCCGGUCUGAUGAGUCUCUGUUUAGACGAAACAGC [CUGUUU] | 2.022 ± 0.0036 | 2.06 ± 0.041 |
| GCUGUCACCGGUGCUUGGUACGUUAUAUUCAGCCGGUCUGAUGAGUCUCUGUUAAGACGAAACAGC [CUGUUA] | 1.994 ± 0.0099 | 2.04 ± 0.03 |
| GCUGUCACCGGUGCUUGGUACGUUAUAUUCAGCCGGUCUGAUGAGUCUGUUACAAGACGAAACAGC [GUUACA] | 2.009 ± 0.012 | 2.01 ± 0.053 |
| GCUGUCACCGGUGCUUGGUACGUUAUAUUCAGCCGGUCUGAUGAGUCUAUGUGUAGACGAAACAGC [AUGUGU] | 1.83 ± 0.032 | 1.97 ± 0.047 |
